Reference: article PMC3956076

Substrate: Nc1ncnc2c1ncn2[C@@H]1O[C@H](COP(=O)(O)OP(=O)(O)OP(=O)(O)OP(=O)(O)OC[C@H]2O[C@@H](n3cnc4c(N)ncnc43)[C@H](O)[C@@H]2O)[C@@H](O)[C@H]1O
Assay: luciferase bioluminescence assay of liberated ATP
Assay type: biochemical, Chlamydia trachomatis
Settings: 5.0 mM MgCl2, 100 mM Tris-HCl pH 7.5, room temperature

B1: CT771 (Chlamydia trachomatis L2/434/Bu) (protein)
chain: MMKTKHEYSFGVIPIRFFGTPDRSTLKACFICHTDGKHWGFPKGHAEEKEGPQEAAERELVEETGLGIVNFFPKIFVENYSFNDKEEIFVRKEVTYFLAEVKGEVHADPDEICDVQWLSFQEGLRLLNFPEIRNIVTEADKFVQSYLFAS
B1 showed a Km of 333 ± 27 µM and a kcat of 3.25 ± 0.1 s⁻¹.
